The results in this text go back to patent US5789547.

The target in this test is human insulin-like growth factor-I (IGF-I) (human).

“human insulin-like growth factor binding protein-3 (IGFBP-3), recombinant, from pDJ12833 (from UniProt P17936)”: the yield of correctly folded (native) protein by RP-HPLC after cofolding, against each protein refolded alone was 99.6%.
